Experimental data taken from patent publication US20240262922A1 (Merck KGaA, published 2024).

What was measured:
[1] = biological target: T1, recombinant human OX40L protein (R&D Systems, cat. #1054-OX) (human, UniProt P23510 51-183); experiment: cell-based or functional assay
T1 sequence: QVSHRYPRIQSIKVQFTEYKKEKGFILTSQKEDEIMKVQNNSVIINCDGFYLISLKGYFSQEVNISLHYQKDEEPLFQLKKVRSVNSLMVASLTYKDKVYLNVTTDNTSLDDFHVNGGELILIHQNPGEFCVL

AVI-GST-His6-hOX40L = biological target: T2, AVI-GST-His6-hOX40L (human, UniProt P23510 51-183); experiment: cell-based or functional assay
T2 sequence: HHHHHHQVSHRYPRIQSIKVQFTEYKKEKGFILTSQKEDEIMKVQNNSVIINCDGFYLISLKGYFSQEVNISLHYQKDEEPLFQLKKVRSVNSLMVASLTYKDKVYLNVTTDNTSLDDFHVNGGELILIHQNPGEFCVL

[2] = biological target: T1, recombinant human OX40L protein (R&D …); experiment: SPR steady state, Biacore T200; OX40L immobilised on CM5, antibody in solution
Description: Recombinant OX40L proteins (human OX40L protein, R&D systems, cat. #1054-OX; cynomolgus monkey OX40L, Novoprotein cat. #CP72) were immobilized onto Biacore CM5 sensor chips and anti-OX40L antibodies were bound to this surface at a range of concentrations. The response at steady state was measured with a Biacore T200 instrument (GE Healthcare) and plotted against the concentration of antibody and fit to a 1:1 binding model. The steady state KD was determined as the antibody concentration at a response equal to half the maximal response (Rₘₐₓ).
As with the IgG clones, binding affinity to human OX40L was determined for all twelve FcFabs using steady state affinity assay as described in section 1.1.7 of Example 1. […]

- Primary T cell activation assay IC50 [1]: 15.2 nM
- OX40L neutralization/OX40-HEK Reporter IC50 (AVI-GST-His6-hOX40L): 57.2 nM
- binding result [2]: no binding
B1: 84E11 (FcFab) (antibody)
heavy: EPKSSDKTHTCPPCPAPPVAGPSVFLFPPKPKDTLMISRTPEVTCVVVDVSHEDPEVKFNWYVDGVEVHNAKTKPREEQYNSTYRVVSVLTVLHQDWLNGKEYKCAVSNKALPSSIEKTISKAKGQPREPQVYTLPPSREEMTKNQVSLTCLVKGFYPSDIAVEWESNGQPENNYKTTPPVLDSDGSFFLYSKLTVDKSRWQQGNVFSCSVMHEALHNHYTQKSLSLSPGAGGGGSGGGGSGGGGSQLQLQESGPGLVKPSETLSLTCTVSGGSISSGSFYWGWIRQPPGKGLEWIGTIYYSGSTYYNPSLKSRVAISVDTSKNQFYLNLNFVTAADTAVYHCARERSSSWYPFDYWGQGTLVTVSSASTKGPSVFPLAPSSKSTSGGTAALGCLVKDYFPEPVTVSWNSGALTSGVHTFPAVLQSSGLYSLSSVVTVPSSSLGTQTYICNVNHKPSNTKVDKRVEPKSC
light: SSELTQDPAVSVALGQTVRITCQGDSLRNYFANWYQQKPGQAPVLVIYGKNNRPSGIPDRFSGSSSGNTASLTITGAQAEDEADYYCNSRDSSGYHVVFGGGTKLTVLGQPKAAPSVTLFPPSSEELQANKATLVCLISDFYPGAVTVAWKADSSPVKAGVETTTPSKQSNNKYAASSYLSLTPEQWKSHKSYSCQVTHEGSTVEKTVAPTECS
